Experimental findings from article PMC11012335, “Hfq-Antisense RNA I Binding Regulates RNase E-Dependent RNA Stability and ColE1 Plasmid Copy Number” are described below.

In this data set the target is Hfq WT (Escherichia coli K-12 MG1655, UniProt P0A6X3 1-102). In words: EMSA; EMSA: 20 mM Tris-HCl pH 7.6, 0.5 M NaCl, 1 mM EDTA, 1% glycerol, 20 min at 25 C; native PAGE in 0.5x TBE at 4 C. To be noted: protein: recombinant; tags: His tag removed with AcTEV protease; label: 3' fluorescein; single-stranded.

Take GGGACAGUAUUUG (ssRNA, 3' fluorescein) [BR13]: the binding result was “binds”.
